Patent US20220323445A1, “REDUCING IMMUNOGENICITY TO PEGLOTICASE” (Horizon Therapeutics Ireland DAC, priority 2020, published 2022)

Test system: serum uric acid (sUA)
Assay: Serum uric acid (sUA) levels and sUA responders, open-label study of pegloticase with MTX (NCT03635957)
Format: in vivo, human
Procedure: The primary objective is to estimate the response rate during Month 6 (Weeks 20, 22, and 24), as measured by the sustained normalization of serum uric acid (SUA) to <6 mg/dL for at least 80% of the time during Month 6 in subjects receiving KXX with MTX.
The primary efficacy outcome endpoint is the sustained normalization of SUA to <6 mg/dL for at least 80% of the time during month 6 (weeks 20, 22, and 24) in subjects receiving KXX with MTX. This is slightly below the urate solubility threshold and this threshold has been the accepted standard for nearly all modern gout trials. Participants who achieve this endpoint were classified as “responders.” Serum uric acid (SUA) responders may also be defined as participants achieving and maintaining SUA <6 mg/dL for at least 80% of the time during Month 6 (Weeks 20, 22, and 24).
Blood samples may be collected prior to each pegloticase infusion for measurement of SUA levels using the Beckman Coulter AU System Uric Acid procedure. Participants were declared “non-responders” if there were SUA measures >6 mg/dL at 2 consecutive study visits beginning with the week 2 visit. […] If the SUA goal is not maintained before or at the 12-week mark, it was assumed that the participant had developed clinically relevant anti-pegloticase antibody and they received no further infusions. This assumption and subsequent discontinuation of pegloticase was consistent with the protocol of large phase III randomized controlled trials and the product label. A formal stopping rule was 2 occasions of SUA levels of greater than 6 mg/dL.
Clinical Chemistry—Blood samples were collected prior to each pegloticase infusion for measurement of SUA levels (primary efficacy parameter) using the Beckman Coulter AU System Uric Acid procedure. In this procedure uric acid is converted to hydrogen peroxide. Hydrogen peroxide reacts with reagent to produce a chromophore which is read bichromatically at 660/800 nm. The amount of dye formed is proportional to the uric acid concentration in the sample.
Serum samples for measurement of SUA levels were collected at the Screening Visit, the Week −4 Visit (prior to the first dose of MTX), and the Week −2 Visit during the MTX Run-in Period; within 48 hours prior to each pegloticase infusion and after the end of each pegloticase infusion prior to discharge from the site during the Pegloticase+IMM Period; at the non-infusion Week 52/End of Study/Early Termination Visits and at the Post Treatment 3 and 6 Month Follow-up Visits. Additional serum samples for SUA levels were collected at optional non-infusion (Frequent Sampling) Visits at Weeks 1 and 7. […] Subjects with SUA level >6 mg/dL at 2 consecutive visits beginning at Week 2 visit discontinued treatment, completed the End of Pegloticase Infusion Visit procedures within 2 weeks and continued the subject visits according to the protocol (without treatment).
Efficacy analyses were performed using the modified intention-to-treat (mITT) population, defined as all enrolled subjects who received ≥1 dose of pegloticase. The proportion of Month 6 responders was summarized, along with a 95% confidence interval for the proportion. The proportion of Month 3 and overall (Months 3 and 6 combined) responders was analyzed similarly.
A subject was declared a non-responder if the subject had SUA level >6 mg/dL at 2 consecutive study visits beginning with the Week 2 Visit. In addition, a subject who withdraws from study treatment for any reason after the first dose of pegloticase in the KXX+MTX Period and prior to Month 6 (for the primary endpoint) or Month 3 (for the secondary endpoint) was considered a non-responder if SUA values were not collected at the planned time points.
Patients were administered oral MTX (15 mg/week) and folate (1 mg/day) 4 weeks prior to the first pegloticase infusion (Day 1) and throughout the pegloticase treatment period. […]

[1] = Day 1 - Post-Infusion, Month 6 sUA Non-Responders
[2] = Day 1 - Post-Infusion, Month 6 sUA Responders
[3] = Day 1 - Post-Infusion, mITT, n=11
[4] = Early Termination Visit, Month 6 sUA Non-Responders
[5] = Early Termination Visit, mITT, n=3
[6] = End of Pegloticase Infusions Visit, Month 6 sUA Responders
[7] = End of Pegloticase Infusions Visit, mITT, n=2
[8] = Week 1, Month 6 sUA Non-Responders
[9] = Week 2 - Post-Infusion, Month 6 sUA Non-Responders
[10] = Week 2 - Post-Infusion, Month 6 sUA Responders
[11] = Week 2 - Post-Infusion, mITT, n=14
[12] = Week 2 - Pre-Infusion, Month 6 sUA Non-Responders
[13] = Week 2 - Pre-Infusion, Month 6 sUA Responders
[14] = Week 2 - Pre-Infusion, mITT, n=14
[15] = Week 4 - Post-Infusion, Month 6 sUA Non-Responders
[16] = Week 4 - Post-Infusion, Month 6 sUA Responders
[17] = Week 4 - Post-Infusion, mITT, n=13
[18] = Week 4 - Pre-Infusion, Month 6 sUA Non-Responders
[19] = Week 4 - Pre-Infusion, Month 6 sUA Responders
[20] = Week 4 - Pre-Infusion, mITT, n=14
[21] = Week 6 - Post-Infusion, Month 6 sUA Non-Responders
[22] = Week 6 - Post-Infusion, Month 6 sUA Responders
[23] = Week 6 - Post-Infusion, mITT, n=12
[24] = Week 6 - Pre-Infusion, Month 6 sUA Non-Responders

B1: pegloticase (protein)
chain: TYKKNDEVEFVRTGYGKDMIKVLHIQRDGKYHSIKEVATTVQLTLSSKKDYLHGDNSDVIPTDTIKNTVNVLAKFKGIKSIETFAVTICEHFLSSFKHVIRAQVYVEEVPWKRFEKNGVKHVHAFIYTPTGTHFCEVEQIRNGPPVIHSGIKDLKVLKTTQSGFEGFIKDQFTTLPEVKDRCFATQVYCKWRYHQGRDVDFEATWDTVRSIVLQKFAGPYDKGEYSPSVQKTLYDIQVLTLGQVPEIEDMEISLPNIHYLNIDMSKMGLINKEEVLLPLDNPYGKITGTVKRKLSSRL
modifications: monomethoxy PEG conjugated; Krystexxa Sequence
notes: covalent conjugate of uricase produced by a genetically modified strain of Escherichia coli and monomethoxypoly (ethylene glycol)
[1]
  sUA < 6 mg/dL, %: (100%)
  sUA Change from Baseline, Mean: -6.60 mg/dL
  sUA Change from Baseline, Median: -7.20 mg/dL
  sUA Observed, Mean: 2.13 mg/dL
  sUA Observed, Median: 1.20 mg/dL
[2]
  sUA < 6 mg/dL, %: (100%)
  sUA Change from Baseline, Mean: -7.55 mg/dL
  sUA Change from Baseline, Median: -7.50 mg/dL
  sUA Observed, Mean: 0.83 mg/dL
  sUA Observed, Median: 0.30 mg/dL
[3]
  sUA < 6 mg/dL, n (%): 11 (100%)
  sUA Change from Baseline, Mean (SD): −7.29 (2.254) mg/dL
  sUA Change from Baseline, Median: -7.30 mg/dL
  sUA Observed, Mean (SD): 1.18 (1.417) mg/dL
  sUA Observed, Median: 0.30 mg/dL
[4]
  sUA Change from Baseline, Mean: -0.57 mg/dL
  sUA Change from Baseline, Median: -0.20 mg/dL
  sUA Observed, Mean: 8.17 mg/dL
  sUA Observed, Median: 8.20 mg/dL
[5]
  sUA < 6 mg/dL, n (%): 0%
  sUA Change from Baseline, Mean (SD): −0.57 (0.635) mg/dL
  sUA Change from Baseline, Median: -0.20 mg/dL
  sUA Observed, Mean (SD): 8.17 (0.058) mg/dL
  sUA Observed, Median: 8.20 mg/dL
[6]
  sUA < 6 mg/dL, %: (100%)
  sUA Change from Baseline, Mean: -8.50 mg/dL
  sUA Change from Baseline, Median: -8.50 mg/dL
  sUA Observed, Mean: 0.30 mg/dL
  sUA Observed, Median: 0.30 mg/dL
[7]
  sUA < 6 mg/dL, n (%): 2 (100%)
  sUA Change from Baseline, Mean (SD): −8.50 (1.556) mg/dL
  sUA Change from Baseline, Median: -8.50 mg/dL
  sUA Observed, Mean (SD): 0.30 (0.000) mg/dL
  sUA Observed, Median: 0.30 mg/dL
[8]
  sUA < 6 mg/dL, %: (100%)
  sUA Change from Baseline, Mean: -8.10 mg/dL
  sUA Change from Baseline, Median: -8.10 mg/dL
  sUA Observed, Mean: 0.30 mg/dL
  sUA Observed, Median: 0.30 mg/dL
Week 1, Month 6 sUA Responders
  sUA < 6 mg/dL, %: (100%)
  sUA Change from Baseline, Mean: -6.88 mg/dL
  sUA Change from Baseline, Median: -7.15 mg/dL
  sUA Observed, Mean: 0.30 mg/dL
  sUA Observed, Median: 0.30 mg/dL
Week 1, mITT, n=6
  sUA < 6 mg/dL, n (%): 6 (100%)
  sUA Change from Baseline, Mean (SD): −7.28 (1.556) mg/dL
  sUA Change from Baseline, Median: -7.75 mg/dL
  sUA Observed, Mean (SD): 0.30 (0.000) mg/dL
  sUA Observed, Median: 0.30 mg/dL
[9]
  sUA < 6 mg/dL, %: (100%)
  sUA Change from Baseline, Mean: -8.43 mg/dL
  sUA Change from Baseline, Median: -8.10 mg/dL
  sUA Observed, Mean: 0.30 mg/dL
  sUA Observed, Median: 0.30 mg/dL
[10]
  sUA < 6 mg/dL, %: (100%)
  sUA Change from Baseline, Mean: -8.97 mg/dL
  sUA Change from Baseline, Median: -8.80 mg/dL
  sUA Observed, Mean: 0.30 mg/dL
  sUA Observed, Median: 0.30 mg/dL
[11]
  sUA < 6 mg/dL, n (%): 14 (100%)
  sUA Change from Baseline, Mean (SD): −8.86 (2.486) mg/dL
  sUA Change from Baseline, Median: -8.70 mg/dL
  sUA Observed, Mean (SD): 0.30 (0.000) mg/dL
  sUA Observed, Median: 0.30 mg/dL
[12]
  sUA < 6 mg/dL, %: (66.7%)
  sUA Change from Baseline, Mean: -5.17 mg/dL
  sUA Change from Baseline, Median: -5.70 mg/dL
  sUA Observed, Mean: 3.57 mg/dL
  sUA Observed, Median: 2.70 mg/dL
[13]
  sUA < 6 mg/dL, %: (100%)
  sUA Change from Baseline, Mean: -8.64 mg/dL
  sUA Change from Baseline, Median: -8.80 mg/dL
  sUA Observed, Mean: 0.63 mg/dL
  sUA Observed, Median: 0.30 mg/dL
[14]
  sUA < 6 mg/dL, n (%): 13 (92.9%)
  sUA Change from Baseline, Mean (SD): −7.90 (2.878) mg/dL
  sUA Change from Baseline, Median: -8.70 mg/dL
  sUA Observed, Mean (SD): 1.26 (2.163) mg/dL
  sUA Observed, Median: 0.30 mg/dL
[15]
  sUA < 6 mg/dL, %: (100%)
  sUA Change from Baseline, Mean: -8.60 mg/dL
  sUA Change from Baseline, Median: -8.60 mg/dL
  sUA Observed, Mean: 0.30 mg/dL
  sUA Observed, Median: 0.30 mg/dL
[16]
  sUA < 6 mg/dL, %: (100%)
  sUA Change from Baseline, Mean: -8.97 mg/dL
  sUA Change from Baseline, Median: -8.80 mg/dL
  sUA Observed, Mean: 0.30 mg/dL
  sUA Observed, Median: 0.30 mg/dL
[17]
  sUA < 6 mg/dL, n (%): 13 (100%)
  sUA Change from Baseline, Mean (SD): −8.92 (2.577) mg/dL
  sUA Change from Baseline, Median: -8.80 mg/dL
  sUA Observed, Mean (SD): 0.30 (0.000) mg/dL
  sUA Observed, Median: 0.30 mg/dL
[18]
  sUA < 6 mg/dL, %: (33.3%)
  sUA Change from Baseline, Mean: -3.70 mg/dL
  sUA Change from Baseline, Median: -1.80 mg/dL
  sUA Observed, Mean: 5.03 mg/dL
  sUA Observed, Median: 6.60 mg/dL
[19]
  sUA < 6 mg/dL, %: (100%)
  sUA Change from Baseline, Mean: -8.59 mg/dL
  sUA Change from Baseline, Median: -8.60 mg/dL
  sUA Observed, Mean: 0.68 mg/dL
  sUA Observed, Median: 0.30 mg/dL
[20]
  sUA < 6 mg/dL, η (%): 12 (85.7%)
  sUA Change from Baseline, Mean (SD): −7.54 (3.768) mg/dL
  sUA Change from Baseline, Median: -8.00 mg/dL
  sUA Observed, Mean (SD): 1.61 (2.637) mg/dL
  sUA Observed, Median: 0.30 mg/dL
[21]
  sUA < 6 mg/dL, %: (100%)
  sUA Change from Baseline, Mean: -9.10 mg/dL
  sUA Change from Baseline, Median: -9.10 mg/dL
  sUA Observed, Mean: 0.30 mg/dL
  sUA Observed, Median: 0.30 mg/dL
[22]
  sUA < 6 mg/dL, %: (100%)
  sUA Change from Baseline, Mean: -8.97 mg/dL
  sUA Change from Baseline, Median: -8.80 mg/dL
  sUA Observed, Mean: 0.30 mg/dL
  sUA Observed, Median: 0.30 mg/dL
[23]
  sUA < 6 mg/dL, n (%): 12 (100%)
  sUA Change from Baseline, Mean (SD): −8.98 (2.679) mg/dL
  sUA Change from Baseline, Median: -8.95 mg/dL
  sUA Observed, Mean (SD): 0.30 (0.000) mg/dL
  sUA Observed, Median: 0.30 mg/dL
[24]
  sUA < 6 mg/dL, %: (50.0%)
  sUA Change from Baseline, Mean: -4.65 mg/dL
  sUA Change from Baseline, Median: -4.65 mg/dL
  sUA Observed, Mean: 4.25 mg/dL
  sUA Observed, Median: 4.25 mg/dL
